Results from publication PMC9482650, “Quantitative fragmentomics allow affinity mapping of interactomes” (Nature Communications, 2022).
Blank lines part the entries; values can stand above or below the binder they belong to.

Experiments:
Test in all cases: holdup assay
Parameters in all cases: key: below the threshold = too weak to quantify, mostly under pKd 3.1 to 4
APBA1_1, Q02410 = biological target: T1, APBA1_1, Q02410
T1 sequence (Q02410 651-752, limits assumed, looked up): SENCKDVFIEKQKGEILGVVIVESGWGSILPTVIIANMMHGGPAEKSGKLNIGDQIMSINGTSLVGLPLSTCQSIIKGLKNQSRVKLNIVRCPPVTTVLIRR

CASK, O14936 = biological target: CASK, O14936
DLG3_3, Q92796 = biological target: T2, DLG3_3, Q92796
T2 sequence (Q92796 374-475, limits assumed, looked up): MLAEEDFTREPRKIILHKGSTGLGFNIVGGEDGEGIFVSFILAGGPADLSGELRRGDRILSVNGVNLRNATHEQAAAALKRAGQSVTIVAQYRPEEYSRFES

FRMPD3, Q5JV73 = biological target: FRMPD3, Q5JV73
GOPC, Q9HD26 = biological target: GOPC, Q9HD26
GORASP2, Q9H8Y8 = biological target: GORASP2, Q9H8Y8
GRID2IP_1, A4D2P6 = biological target: GRID2IP_1, A4D2P6
GRID2IP_2, A4D2P6 = biological target: GRID2IP_2, A4D2P6
HTRA2, O43464 = biological target: HTRA2, O43464
IL16_4, Q14005 = biological target: IL16_4, Q14005
Inadl_3, Q8NI35 = biological target: Inadl_3, Q8NI35
Inadl_9, Q8NI35 = biological target: Inadl_9, Q8NI35
LIMK2, P53671 = biological target: LIMK2, P53671
LNX1_2, Q8TBB1 = biological target: LNX1_2, Q8TBB1
LNX1_3, Q8TBB1 = biological target: LNX1_3, Q8TBB1
LNX2_2, Q8N448 = biological target: T3, LNX2_2, Q8N448
T3 sequence (Q8N448 334-432, limits assumed, looked up): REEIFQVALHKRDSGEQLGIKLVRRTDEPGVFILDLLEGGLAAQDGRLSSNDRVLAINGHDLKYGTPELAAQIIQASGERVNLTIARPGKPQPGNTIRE

MAGI2_3, Q86UL8 = biological target: MAGI2_3, Q86UL8
MAGI2_4, Q86UL8 = biological target: MAGI2_4, Q86UL8
MAST1, Q9Y2H9 = biological target: MAST1, Q9Y2H9
MAST2, Q6P0Q8 = biological target: MAST2, Q6P0Q8
NHERF4_2, Q86UT5 = biological target: NHERF4_2, Q86UT5
PDZD7_3, Q9H5P4 = biological target: T4, PDZD7_3, Q9H5P4
T4 sequence (Q9H5P4 857-944, limits assumed, looked up): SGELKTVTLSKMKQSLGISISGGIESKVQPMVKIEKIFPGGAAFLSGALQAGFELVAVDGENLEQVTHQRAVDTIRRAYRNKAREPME

PDZRN3_1, Q9UPQ7 = biological target: T5, PDZRN3_1, Q9UPQ7
T5 sequence (Q9UPQ7 244-349, limits assumed, looked up): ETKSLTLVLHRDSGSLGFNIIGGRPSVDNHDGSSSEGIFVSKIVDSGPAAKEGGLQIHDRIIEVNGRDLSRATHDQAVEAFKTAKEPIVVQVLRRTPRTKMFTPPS

PDZRN4_1, Q6ZMN7 = biological target: PDZRN4_1, Q6ZMN7
RADIL, Q96JH8 = biological target: T6, RADIL, Q96JH8
T6 sequence (Q96JH8 971-1071, limits assumed, looked up): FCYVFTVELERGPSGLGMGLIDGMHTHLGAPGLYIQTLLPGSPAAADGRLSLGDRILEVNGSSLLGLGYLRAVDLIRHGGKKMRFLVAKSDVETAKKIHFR

RHPN1, Q8TCX5 = biological target: T7, RHPN1, Q8TCX5
T7 sequence (Q8TCX5 508-602, limits assumed, looked up): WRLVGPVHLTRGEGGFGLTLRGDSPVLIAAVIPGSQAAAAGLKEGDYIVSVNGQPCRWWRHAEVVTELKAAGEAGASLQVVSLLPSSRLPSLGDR

SNTG2, Q9NY99 = biological target: T8, SNTG2, Q9NY99
T8 sequence (Q9NY99 68-166, limits assumed, looked up): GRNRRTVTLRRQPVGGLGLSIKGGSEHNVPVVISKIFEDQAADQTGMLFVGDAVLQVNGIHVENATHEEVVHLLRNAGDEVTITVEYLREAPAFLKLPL

TJP1_2, Q07157 = biological target: TJP1_2, Q07157
TJP2_1, Q9UDY2 = biological target: TJP2_1, Q9UDY2
[1] = plain residues with an end cap or a label only (N-terminal biotin on a linker: ahx)
[2] = plain residues with an end cap or a label only (N-terminal biotin on a linker: ttds)

Chain of TJP1_2, Q07157 (Q07157 181-274): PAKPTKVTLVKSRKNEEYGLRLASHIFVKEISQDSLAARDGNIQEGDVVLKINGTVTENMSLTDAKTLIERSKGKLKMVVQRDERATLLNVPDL
Chain of Inadl_3, Q8NI35 (Q8NI35 359-469): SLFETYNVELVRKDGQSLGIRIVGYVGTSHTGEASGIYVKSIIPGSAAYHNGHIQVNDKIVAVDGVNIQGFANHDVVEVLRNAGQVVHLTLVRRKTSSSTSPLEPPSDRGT
Chain of GRID2IP_2, A4D2P6 (A4D2P6 272-370): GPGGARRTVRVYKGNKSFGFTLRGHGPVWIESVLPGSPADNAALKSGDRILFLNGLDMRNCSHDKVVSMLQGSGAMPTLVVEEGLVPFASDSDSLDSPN
Chain of HTRA2, O43464 (O43464 355-458): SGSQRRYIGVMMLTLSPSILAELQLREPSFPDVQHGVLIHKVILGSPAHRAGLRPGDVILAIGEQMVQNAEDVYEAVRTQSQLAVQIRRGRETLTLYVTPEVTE
Chain of NHERF4_2, Q86UT5 (Q86UT5 220-308): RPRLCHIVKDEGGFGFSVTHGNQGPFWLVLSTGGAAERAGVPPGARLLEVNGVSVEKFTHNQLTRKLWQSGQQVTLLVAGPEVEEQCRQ
Chain of IL16_4, Q14005 (Q14005 1229-1329): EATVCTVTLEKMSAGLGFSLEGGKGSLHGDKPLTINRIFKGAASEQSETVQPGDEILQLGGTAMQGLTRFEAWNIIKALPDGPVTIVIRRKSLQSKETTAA
Chain of LNX1_2, Q8TBB1 (Q8TBB1 371-470): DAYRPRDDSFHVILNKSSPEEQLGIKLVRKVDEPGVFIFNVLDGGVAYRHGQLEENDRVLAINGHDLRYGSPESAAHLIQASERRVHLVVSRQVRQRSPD
Chain of Inadl_9, Q8NI35 (Q8NI35 1530-1615): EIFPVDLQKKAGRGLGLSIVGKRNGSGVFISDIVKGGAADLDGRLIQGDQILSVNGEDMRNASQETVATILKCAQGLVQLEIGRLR
Chain of GRID2IP_1, A4D2P6 (A4D2P6 1-87): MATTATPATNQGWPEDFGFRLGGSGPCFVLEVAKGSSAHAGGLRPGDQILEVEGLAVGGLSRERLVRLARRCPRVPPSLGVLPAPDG
Chain of LNX1_3, Q8TBB1 (Q8TBB1 500-596): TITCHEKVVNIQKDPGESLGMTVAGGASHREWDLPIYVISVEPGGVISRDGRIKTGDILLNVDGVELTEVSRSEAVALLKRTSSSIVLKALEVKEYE
Chain of MAST1, Q9Y2H9 (Q9Y2H9 962-1065): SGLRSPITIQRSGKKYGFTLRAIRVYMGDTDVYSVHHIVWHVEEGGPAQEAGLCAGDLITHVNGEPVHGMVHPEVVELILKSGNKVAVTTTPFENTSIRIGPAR
Chain of LIMK2, P53671 (P53671 143-248): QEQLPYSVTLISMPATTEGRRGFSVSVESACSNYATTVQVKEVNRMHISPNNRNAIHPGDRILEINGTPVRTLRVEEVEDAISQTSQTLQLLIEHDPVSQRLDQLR
Chain of MAGI2_4, Q86UL8 (Q86UL8 772-865): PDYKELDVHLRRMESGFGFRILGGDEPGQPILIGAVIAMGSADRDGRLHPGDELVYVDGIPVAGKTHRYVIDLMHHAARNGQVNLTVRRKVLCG
Chain of MAST2, Q6P0Q8 (Q6P0Q8 1099-1202): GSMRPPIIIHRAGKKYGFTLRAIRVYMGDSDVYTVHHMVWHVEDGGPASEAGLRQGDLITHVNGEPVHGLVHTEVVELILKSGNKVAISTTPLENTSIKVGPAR
Chain of FRMPD3, Q5JV73 (Q5JV73 12-100): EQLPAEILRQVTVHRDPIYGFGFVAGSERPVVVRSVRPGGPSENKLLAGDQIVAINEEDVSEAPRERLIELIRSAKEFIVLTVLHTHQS
Chain of TJP2_1, Q9UDY2 (Q9UDY2 24-128): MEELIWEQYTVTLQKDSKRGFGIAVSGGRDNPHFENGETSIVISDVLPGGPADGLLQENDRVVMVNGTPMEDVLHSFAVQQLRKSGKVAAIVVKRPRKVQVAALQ
Chain of PDZRN4_1, Q6ZMN7 (Q6ZMN7 213-318): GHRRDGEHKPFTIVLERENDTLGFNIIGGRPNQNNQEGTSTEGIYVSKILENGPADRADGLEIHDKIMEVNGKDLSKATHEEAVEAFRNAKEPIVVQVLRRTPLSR
Chain of CASK, O14936 (O14936 487-570): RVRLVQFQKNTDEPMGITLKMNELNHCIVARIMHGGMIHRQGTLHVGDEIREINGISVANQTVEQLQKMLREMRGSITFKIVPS
Chain of MAGI2_3, Q86UL8 (Q86UL8 600-682): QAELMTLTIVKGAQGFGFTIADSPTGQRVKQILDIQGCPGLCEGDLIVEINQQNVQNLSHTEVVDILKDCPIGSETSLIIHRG

pKd (APBA1_1, Q02410; [1]): below the threshold
pKd (CASK, O14936; [1]): below the threshold
pKd (DLG3_3, Q92796; [1]): below the threshold
pKd (FRMPD3, Q5JV73; [1]): below the threshold
pKd (GOPC, Q9HD26; [1]): below the threshold
pKd (GORASP2, Q9H8Y8; [1]): below the threshold
pKd (GRID2IP_1, A4D2P6; [1]): below the threshold
pKd (GRID2IP_2, A4D2P6; [1]): below the threshold
pKd (HTRA2, O43464; [1]): below the threshold
pKd (IL16_4, Q14005; [1]): below the threshold
pKd (Inadl_3, Q8NI35; [1]): below the threshold
pKd (Inadl_9, Q8NI35; [1]): below the threshold
pKd (LIMK2, P53671; [1]): below the threshold
pKd (LNX1_2, Q8TBB1; [1]): below the threshold
pKd (LNX1_3, Q8TBB1; [1]): below the threshold
pKd (LNX2_2, Q8N448; [1]): below the threshold
pKd (MAGI2_3, Q86UL8; [1]): below the threshold
pKd (MAGI2_4, Q86UL8; [1]): 3.69
pKd (MAST1, Q9Y2H9; [1]): 4.32
pKd (MAST2, Q6P0Q8; [1]): 4.94
pKd (NHERF4_2, Q86UT5; [1]): below the threshold
pKd (PDZD7_3, Q9H5P4; [1]): below the threshold
pKd (PDZRN3_1, Q9UPQ7; [1]): below the threshold
pKd (PDZRN4_1, Q6ZMN7; [1]): below the threshold
pKd (RADIL, Q96JH8; [1]): below the threshold
pKd (RHPN1, Q8TCX5; [1]): 3.72
pKd (SNTG2, Q9NY99; [1]): below the threshold
pKd (TJP1_2, Q07157; [1]): below the threshold
pKd (TJP2_1, Q9UDY2; [1]): below the threshold
Binder: PKMKLNETSF [SHKBP1, Q8TBC3]

pKd (APBA1_1, Q02410; [2]): below the threshold
pKd (CASK, O14936; [2]): below the threshold
pKd (DLG3_3, Q92796; [2]): 4.43
pKd (FRMPD3, Q5JV73; [2]): below the threshold
pKd (GOPC, Q9HD26; [2]): 3.53
pKd (GORASP2, Q9H8Y8; [2]): 3.81
pKd (GRID2IP_1, A4D2P6; [2]): below the threshold
pKd (GRID2IP_2, A4D2P6; [2]): below the threshold
pKd (HTRA2, O43464; [2]): below the threshold
pKd (IL16_4, Q14005; [2]): 3.49
pKd (Inadl_3, Q8NI35; [2]): below the threshold
pKd (Inadl_9, Q8NI35; [2]): 3.54
pKd (LIMK2, P53671; [2]): below the threshold
pKd (LNX1_2, Q8TBB1; [2]): 3.66
pKd (LNX1_3, Q8TBB1; [2]): below the threshold
pKd (LNX2_2, Q8N448; [2]): 4.48
pKd (MAGI2_3, Q86UL8; [2]): 3.73
pKd (MAGI2_4, Q86UL8; [2]): 4.45
pKd (MAST1, Q9Y2H9; [2]): 4.68
pKd (MAST2, Q6P0Q8; [2]): 5.13
pKd (NHERF4_2, Q86UT5; [2]): below the threshold
pKd (PDZD7_3, Q9H5P4; [2]): 4.39
pKd (PDZRN3_1, Q9UPQ7; [2]): 3.82
pKd (PDZRN4_1, Q6ZMN7; [2]): 4.15
pKd (RADIL, Q96JH8; [2]): below the threshold
pKd (RHPN1, Q8TCX5; [2]): 3.93
pKd (SNTG2, Q9NY99; [2]): 3.99
pKd (TJP1_2, Q07157; [2]): below the threshold
pKd (TJP2_1, Q9UDY2; [2]): below the threshold
Binder: KLVIKTETTV [RASSF6, Q6ZTQ3]

pKd (APBA1_1, Q02410; [1]): below the threshold
pKd (CASK, O14936; [1]): below the threshold
pKd (DLG3_3, Q92796; [1]): 3.67
pKd (FRMPD3, Q5JV73; [1]): below the threshold
pKd (GOPC, Q9HD26; [1]): 4.1
pKd (GORASP2, Q9H8Y8; [1]): 4.33
pKd (GRID2IP_1, A4D2P6; [1]): below the threshold
pKd (GRID2IP_2, A4D2P6; [1]): 3.57
pKd (HTRA2, O43464; [1]): 3.48
pKd (IL16_4, Q14005; [1]): below the threshold
pKd (Inadl_3, Q8NI35; [1]): 3.76
pKd (Inadl_9, Q8NI35; [1]): below the threshold
pKd (LIMK2, P53671; [1]): below the threshold
pKd (LNX1_2, Q8TBB1; [1]): 4.23
pKd (LNX1_3, Q8TBB1; [1]): below the threshold
pKd (LNX2_2, Q8N448; [1]): 4.94
pKd (MAGI2_3, Q86UL8; [1]): 3.56
pKd (MAGI2_4, Q86UL8; [1]): 4.56
pKd (MAST1, Q9Y2H9; [1]): 3.98
pKd (MAST2, Q6P0Q8; [1]): 4.46
pKd (NHERF4_2, Q86UT5; [1]): below the threshold
pKd (PDZD7_3, Q9H5P4; [1]): 5.58
pKd (PDZRN3_1, Q9UPQ7; [1]): below the threshold
pKd (PDZRN4_1, Q6ZMN7; [1]): below the threshold
pKd (RADIL, Q96JH8; [1]): 4.2
pKd (RHPN1, Q8TCX5; [1]): 4.4
pKd (SNTG2, Q9NY99; [1]): 3.81
pKd (TJP1_2, Q07157; [1]): below the threshold
pKd (TJP2_1, Q9UDY2; [1]): below the threshold
Binder: YNSFLSVTTV [PDZRN3, Q9UPQ7]

Second part, the binder before the results:

Binder: SHSSKGETAV [FZD7, O75084]
pKd (APBA1_1, Q02410; [2]): below the threshold
pKd (CASK, O14936; [2]): below the threshold
pKd (DLG3_3, Q92796; [2]): 4.12
pKd (FRMPD3, Q5JV73; [2]): below the threshold
pKd (GOPC, Q9HD26; [2]): below the threshold
pKd (GORASP2, Q9H8Y8; [2]): 3.66
pKd (GRID2IP_1, A4D2P6; [2]): below the threshold
pKd (GRID2IP_2, A4D2P6; [2]): below the threshold
pKd (HTRA2, O43464; [2]): below the threshold
pKd (IL16_4, Q14005; [2]): below the threshold
pKd (Inadl_3, Q8NI35; [2]): below the threshold
pKd (Inadl_9, Q8NI35; [2]): below the threshold
pKd (LIMK2, P53671; [2]): below the threshold
pKd (LNX1_2, Q8TBB1; [2]): below the threshold
pKd (LNX1_3, Q8TBB1; [2]): below the threshold
pKd (LNX2_2, Q8N448; [2]): below the threshold
pKd (MAGI2_3, Q86UL8; [2]): 3.49
pKd (MAGI2_4, Q86UL8; [2]): below the threshold
pKd (MAST1, Q9Y2H9; [2]): 4.77
pKd (MAST2, Q6P0Q8; [2]): 5.09
pKd (NHERF4_2, Q86UT5; [2]): below the threshold
pKd (PDZD7_3, Q9H5P4; [2]): 3.86
pKd (PDZRN3_1, Q9UPQ7; [2]): 4.51
pKd (PDZRN4_1, Q6ZMN7; [2]): 4.3
pKd (RADIL, Q96JH8; [2]): below the threshold
pKd (RHPN1, Q8TCX5; [2]): below the threshold
pKd (SNTG2, Q9NY99; [2]): below the threshold
pKd (TJP1_2, Q07157; [2]): below the threshold
pKd (TJP2_1, Q9UDY2; [2]): below the threshold

Binder: PFRSRSPSEV [GPR6, P46095]
pKd (APBA1_1, Q02410; [2]): below the threshold
pKd (CASK, O14936; [2]): below the threshold
pKd (DLG3_3, Q92796; [2]): below the threshold
pKd (FRMPD3, Q5JV73; [2]): below the threshold
pKd (GOPC, Q9HD26; [2]): below the threshold
pKd (GORASP2, Q9H8Y8; [2]): 3.81
pKd (GRID2IP_1, A4D2P6; [2]): below the threshold
pKd (GRID2IP_2, A4D2P6; [2]): below the threshold
pKd (HTRA2, O43464; [2]): below the threshold
pKd (IL16_4, Q14005; [2]): below the threshold
pKd (Inadl_3, Q8NI35; [2]): below the threshold
pKd (Inadl_9, Q8NI35; [2]): 3.47
pKd (LIMK2, P53671; [2]): below the threshold
pKd (LNX1_2, Q8TBB1; [2]): below the threshold
pKd (LNX1_3, Q8TBB1; [2]): below the threshold
pKd (LNX2_2, Q8N448; [2]): below the threshold
pKd (MAGI2_3, Q86UL8; [2]): below the threshold
pKd (MAGI2_4, Q86UL8; [2]): below the threshold
pKd (MAST1, Q9Y2H9; [2]): below the threshold
pKd (MAST2, Q6P0Q8; [2]): below the threshold
pKd (NHERF4_2, Q86UT5; [2]): below the threshold
pKd (PDZD7_3, Q9H5P4; [2]): below the threshold
pKd (PDZRN3_1, Q9UPQ7; [2]): below the threshold
pKd (PDZRN4_1, Q6ZMN7; [2]): 3.57
pKd (RADIL, Q96JH8; [2]): below the threshold
pKd (RHPN1, Q8TCX5; [2]): below the threshold
pKd (SNTG2, Q9NY99; [2]): below the threshold
pKd (TJP1_2, Q07157; [2]): below the threshold
pKd (TJP2_1, Q9UDY2; [2]): below the threshold
